The values that follow come from patent US20240252667A1 (ARMAGEN, published 2024).

The target of assay [1] is T1, human insulin receptor extracellular domain (HIR ECD) (human, UniProt P06213 28-956, limits assumed).
T1 construct: extracellular domain; Plated on 96-well dishes in the ELISA
The experiment in a line: ELISA, HIR ECD plated (HIR receptor assay).

In assay [2] the target is T1, human insulin receptor extracellular …. Description: ELISA, HIR ECD plated; normalised with MW 150 kDa. Here is the method:
(§1) The COS-derived HIR Ab-HEXA fusion protein (also designated HIRMAb-HEXA), following purification with protein A affinity chromatography, was assessed for purity by reducing sodium dodecysulfate polyacrylamide gel electrophoresis (SDS-PAGE) as shown in FIG. 10. Only the HC and LC proteins are detected for either the HIRMAb alone or the HIRMAb-HEXA fusion protein. For the HIRMAb alone the higher molecular weight (MW) band is the HC and the lower MW band is the LC. For the HIRMAb-HEXA fusion protein, the higher MW band is the […]. The identity of the fusion protein was verified by Western blotting using primary antibodies to either human IgG (FIG. 11, left panel) or human HEXA (FIG. 11, right panel). The molecular weight (MW) of the HIRMAb-HEXA heavy and light chains are estimated by linear regression based on the migration of the MW standards. […] The affinity of the fusion protein for the HIR extracellular domain (ECD) was determined with an ELISA. […] The HIR ECD was plated on Nunc-Maxisorb 96 well dishes and the binding of the HIR Ab, or the HIR Ab-HEXA fusion protein, to the HIR ECD was detected with a secondary antibody, followed by binding with an alkaline phosphatase detector reagent. […]

Assay [3] shares this target. The experiment in a line: ELISA, recombinant HIR ECD plated; normalised with MW 150 kDa. The method, then:
(§2) The potency of the CHO-derived fusion protein was assessed with the HIR ECD binding ELISA. The affinity of the fusion protein for the HIR extracellular domain (ECD) was determined with an ELISA. Recombinant HIR ECD was plated on Nunc-Maxisorb 96 well dishes and the binding of the HIR Ab, or the HIR Ab-PPT1 fusion protein, to the HIR ECD was detected with a secondary antibody, followed by binding with an alkaline phosphatase detector reagent. […] The MW of the HIR Ab is 150 kDa, and the MW of the HIR Ab-fusion protein is 246 kDa.

The target is the same in assay [4]. The experiment in a line: ELISA, HIR ECD plated, biotinylated goat anti-human IgG detection.
The target is the same in assay [5]. Description: ELISA, HIR ECD plated, secondary antibody and alkaline phosphatase detection. Here is the method:
as §1

Assay [6] has the same target. Description: ELISA, recombinant HIR ECD plated, secondary antibody and alkaline phosphatase detection. The method, then: as §2
Assay [7] has the same target. Description: ELISA, recombinant HIR ECD plated, secondary antibody and alkaline phosphatase detection; CHO-derived HIR Ab. The method, then:
(§3) The affinity of the fusion protein for the HIR extracellular domain (ECD) was determined with an ELISA. Recombinant HIR ECD was plated on Nunc-Maxisorb 96 well dishes and the binding of the HIR Ab, or the HIR Ab-ASM fusion protein, to the HIR ECD was detected with a secondary antibody, followed by binding with an alkaline phosphatase detector reagent. […] The MW of the HIR Ab is 150 kDa, and the MW of the HIR Ab-fusion protein is 320 kDa.

Assay [8] shares this target. The experiment in a line: ELISA, recombinant HIR ECD plated; CHO-derived protein; normalised with MW 246 kDa. Here is the method: as §2
Assay [9] shares this target. The experiment in a line: ELISA, recombinant HIR ECD plated, secondary antibody and alkaline phosphatase detection; CHO-derived protein. Here is the method:
as §3, §2

Assay [10] has the same target. Description: ELISA, recombinant HIR ECD plated; CHO-derived protein; normalised with MW 320 kDa. The method, then:
as §3

Assay [11] shares this target. Description: ELISA, HIR ECD plated; CHO-derived protein. Here is the method:
The estimated MW of the hetero-tetrameric HIRMAb-HEXA fusion protein shown in FIG. 2 is 318 kDa, based on migration in the SDS-PAGE of the Western blot. The affinity of the fusion protein for the HIR extracellular domain (ECD) was determined with an ELISA. CHO cells permanently transfected with the HIR ECD were grown in serum free media (SFM), and the HIR ECD was purified with a wheat germ agglutinin affinity column, as previously described in Coloma et al. (2000) Pharm Res, 17:266-274. The HIR ECD was plated on Nunc-Maxisorb 96 well dishes and the binding of the HIR Ab, or the HIR Ab-HEXA fusion protein, to the HIR ECD was detected with a secondary antibody, followed by binding with an alkaline phosphatase detector reagent. […] The MW of the HIR Ab is 150 kDa, and the MW of the HIR Ab-fusion protein is 318 kDa.
The CHO line producing the HIR Ab-HEXA fusion protein was generated from CHO cells following 2 rounds of DC as described above. The accession cell line was propagated in a 2L shake flask in SFM on an orbital shaker and the CHO-derived fusion protein was purified by protein A affinity chromatography. […] The potency of the CHO-derived fusion protein as assessed with the HIR ECD binding ELISA, as described above.

For assay [12] the target is unchanged. The experiment in a line: ELISA, HIR ECD plated; COS-derived protein; normalised with MW 318 kDa. Here is the method:
as §1

The target is the same in assay [13]. The experiment in a line: ELISA, HIR ECD plated, secondary antibody and alkaline phosphatase detection; COS-derived protein. The method, then: as §1

Where “and” joins values, the source holds several entries; their conditions need not be identical. Equal values may be shown once.

B1: chimeric HIR Ab (antibody to the human insulin receptor) (antibody, human IgG1, kappa)
heavy: not shown
light: DIQMTQSPSSLSASLGERVSLTCRASQDIGGNLYWLQQGPDGTIKRLIYATSSLDSGVPKRFSGSRSGSDYSLTISSLESEDFVDYYCLQYSSSPWTFGGGTKMEIKRTVAAPSVFIFPPSDEQLKSGTASVVCLLNNFYPREAKVQWKVDNALQSGNSQESVTEQDSKDSTYSLSSTLTLSKADYEKHKVYACEVTHQGLSSPVTKSFNRGEC
notes: also called HIRMAb; chimeric HIRMAb
For the molecule B1, the EC50 was 0.25 nM in assay [1]; 0.23 nM in assay [2]; 0.32 nM and 0.26 nM in assay [3]; 0.77 nM in assay [4]; 0.034 µg/mL in assay [5]; 0.039 µg/mL in assay [6]. For the same molecule, the EC50 in [7] was determined as 0.047 µg/mL.

B2: HIR Ab-LL-PPT1 fusion protein (31-amino acid linker) (antibody, human IgG1, human IgG3, kappa)
heavy: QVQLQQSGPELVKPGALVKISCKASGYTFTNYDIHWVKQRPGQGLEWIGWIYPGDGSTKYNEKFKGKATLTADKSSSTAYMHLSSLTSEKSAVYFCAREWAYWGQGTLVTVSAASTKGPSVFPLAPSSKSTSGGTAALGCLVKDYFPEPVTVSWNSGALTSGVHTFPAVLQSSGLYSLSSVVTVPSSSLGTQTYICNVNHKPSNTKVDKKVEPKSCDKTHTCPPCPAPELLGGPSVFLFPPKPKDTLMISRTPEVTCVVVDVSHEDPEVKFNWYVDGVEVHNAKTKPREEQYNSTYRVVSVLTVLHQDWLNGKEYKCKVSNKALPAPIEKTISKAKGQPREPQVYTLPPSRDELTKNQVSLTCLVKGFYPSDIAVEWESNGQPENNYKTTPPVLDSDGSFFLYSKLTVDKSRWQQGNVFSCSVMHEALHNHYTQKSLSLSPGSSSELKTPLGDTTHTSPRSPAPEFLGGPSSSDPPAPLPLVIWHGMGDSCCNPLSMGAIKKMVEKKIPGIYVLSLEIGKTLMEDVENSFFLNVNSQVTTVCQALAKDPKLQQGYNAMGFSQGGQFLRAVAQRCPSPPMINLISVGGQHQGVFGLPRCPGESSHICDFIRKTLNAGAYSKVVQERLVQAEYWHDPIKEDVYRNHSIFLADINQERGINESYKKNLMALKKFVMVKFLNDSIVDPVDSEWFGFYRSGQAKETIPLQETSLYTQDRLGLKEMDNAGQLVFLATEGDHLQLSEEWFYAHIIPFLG
light: B1 light
notes: Hetero-tetramer, MW 246 kDa; The ELISA used CHO-derived protein; also called HIR Ab-PPT1; HIRMAb-PPT1
For B2, the EC50 came to 0.38 nM in assay [8] and 0.094 µg/mL in assay [9].

B3: HIR Ab-ASM fusion protein (antibody, human IgG1, human IgG3, kappa)
heavy: not shown
light: DIQMTQSPSSLSASLGERVSLTCRASQDIGGNLYWLQQGPDGTIKRLIYATSSLDSGVPKRFSGSRSGSDYSLTISSLESEDFVDYYCLQYSSSPWTFGGGTKMEIKRTVAAPSVFIFPPSDEQLKSGTASVVCLLNNFYPREAKVQWKVDNALQSGNSQESVTEQDSKDSTYSLSSTLTLSKADYEKHKVYACEVTHQGLSSPVTKSFNRGECSSSELKTPLGDTTHTSPRSPAPEFLGGPSSSHPLSPQGHPARLHRIVPRLRDVFGWGNLTCPICKGLFTAINLGLKKEPNVARVGSVAIKLCNLLKIAPPAVCQSIVHLFEDDMVEVWRRSVLSPSEACGLLLGSTCGHWDIFSSWNISLPTVPKPPPKPPSPPAPGAPVSRILFLTDLHWDHDYLEGTDPDCADPLCCRRGSGLPPASRPGAGYWGEYSKCDLPLRTLESLLSGLGPAGPFDMVYWTGDIPAHDVWHQTRQDQLRALTTVTALVRKFLGPVPVYPAVGNHESTPVNSFPPPFIEGNHSSRWLYEAMAKAWEPWLPAEALRTLRIGGFYALSPYPGLRLISLNMNFCSRENFWLLINSTDPAGQLQWLVGELQAAEDRGDKVHIIGHIPPGHCLKSWSWNYYRIVARYENTLAAQFFGHTHVDEFEVFYDEETLSRPLAVAFLAPSATTYIGLNPGYRVYQIDGNYSGSSHVVLDHETYILNLTQANIPGAIPHWQLLYRARETYGLPNTLPTAWHNLVYRMRGDMQLFQTFWFLYHKGHPPSEPCGTPCRLATLCAQLSARADSPALCRHLMPDGSLPEAQSLWPRP
notes: Hetero-tetramer, MW 320 kDa; The ELISA used CHO-derived protein; also called HIRMAb-ASM; HIR Ab LC-ASM + HIR Ab HC
For the molecule B3, the results for the EC50 in assay [10] and in assay [9] were 0.93 nM and 0.299 µg/mL, respectively.

B4: HIR Ab-HEXA fusion protein (antibody, human IgG1, human IgG3, kappa)
heavy: not shown
light: DIQMTQSPSSLSASLGERVSLTCRASQDIGGNLYWLQQGPDGTIKRLIYATSSLDSGVPKRFSGSRSGSDYSLTISSLESEDFVDYYCLQYSSSPWTFGGGTKMEIKRTVAAPSVFIFPPSDEQLKSGTASVVCLLNNFYPREAKVQWKVDNALQSGNSQESVTEQDSKDSTYSLSSTLTLSKADYEKHKVYACEVTHQGLSSPVTKSFNRGECSSSELKTPLGDTTHTSPRSPAPEFLGGPSSSLWPWPQNFQTSDQRYVLYPNNFQFQYDVSSAAQPGCSVLDEAFQRYRDLLFGSGSWPRPYLTGKRHTLEKNVLVVSVVTPGCNQLPTLESVENYTLTINDDQCLLLSETVWGALRGLETFSQLVWKSAEGTFFINKTEIEDFPRFPHRGLLLDTSRHYLPLSSILDTLDVMAYNKLNVFHWHLVDDPSFPYESFTFPELMRKGSYNPVTHIYTAQDVKEVIEYARLRGIRVLAEFDTPGHTLSWGPGIPGLLTPCYSGSEPSGTFGPVNPSLNNTYEFMSTFFLEVSSVFPDFYLHLGGDEVDFTCWKSNPEIQDFMRKKGFGEDFKQLESFYIQTLLDIVSSYGKGYVVWQEVFDNKVKIQPDTIIQVWREDIPVNYMKELELVTKAGFRALLSAPWYLNRISYGPDWKDFYIVEPLAFEGTPEQKALVIGGEACMWGEYVDNTNLVPRLWPRAGAVAERLWSNKLTSDLTFAYERLSHFRCELLRRGVQAQPLNVGFCEQEFEQT
notes: also called HIRMAb-HEXA; HIR Ab LC-HEXA + HIR Ab HC
For B4, the EC50 in assay [11] worked out at 0.122 µg/mL; in assay [12], 0.35 nM; in assay [13], 0.112 µg/mL.
